Data published in US20100172925A1, “HLA-A2-RESTRICTED T-CELL EPITOPES OF THE RESPIRATORY SYNCYTIAL VIRUS FUSION PROTEIN AS PEPTIDE-BASED VACCINES” (priority 2009, published 2010).
“Also recorded” adds a separate entry of the source. No end group written: not given here.

Experiments:
HLA-A*0201 molecules = target: T1, HLA-A*0201 molecules (Homo sapiens, UniProt P04439, D140Y/D185E/D98H/E176V/E277Q/G131W/G231S/I119V/I121R/I166T/I218V/L300P/L318F/N151K/N90K/P208A/P217A/Q86G/Q94H/R138H/R169H/T345S); assay: T2 cell-stabilization assay (T2-based HLA-A*0201 binding); conditions: T2 cells, peptide 50 μg/mL; for binding affinity higher than the baseline: moderate binding affinity; for mean of fluorescence intensity (MFI) ratio, binding to HLA-A*0201: ratio to negative control (MFI=1)
T1 construct: T2 cell (which expressing HLA-A*0201)-stabilization assay; endogenous in cells; host or cells: T2 cells

RSV-B1 = assay: Viral load in lungs after live RSV-B1 challenge of peptide-immunized mice; format: in vivo, mouse; conditions: two doses of peptide; challenge 10^6 pfu live RSV-B1; 4 days post challenge
Method: HLA-A2.1 transgenic C57BL/6 mice were anesthetized with isoflurane and primed with 1×10^7 pfu/50 μL of rAd-F0, rAd-LacZ or 1×10^4 live RSV B1 via the intranasal (i.n.) route. Twenty days later, animals were boosted i.n. with the same dose of respective immunogens. For peptide-based vaccination, transgenic mice were immunized subcutaneously (s.c.) with 50 μg of individual synthetic peptides emulsified in 100 μL of incomplete Freund's adjuvant (IFA) and then boosted s.c. with the same dose of respective peptides mixed with IFA one week later. Mice were sacrificed 7 days after the boost. […] Proliferated CD4^+ or CD8^+ T cell counts were analyzed by flow cytometry (BD FACSCalibur) using PE-labeled specific antibody against CD4 or CD8, respectively. […]
In FIG. 5, mice were immunized via the intranasal route twice with the immunogen as indicated before they were intranasally challenged with 10^6 pfu of live RSV B1. Viral plaques in the lungs of the individual mice were determined 4 days post the challenge using plaque-forming assay as described in the methods. Results were expressed as the plaque number for each mouse. […] 14 and subsequently challenged with 1×10^6 pfu of live RSV-B1 viruses, as compared to 282±116 plaques detected in the lung tissues of mice immunized with the adjuvant IFA alone. […]

[1] = test system: CD4+ lymphocytes of peptide-immunized HLA-Tg B6 mice; assay: CD4+ T cell proliferation (CFSE, cell dividing index) in peptide-immunized mice; format: in vivo, mouse; conditions: mice immunized s.c. twice with 50 μg peptide in IFA; 8 days of restimulation by the same peptide
Method: (§1) HLA-A2.1 transgenic C57BL/6 mice were anesthetized with isoflurane and primed with 1×10^7 pfu/50 μL of rAd-F0, rAd-LacZ or 1×10^4 live RSV B1 via the intranasal (i.n.) route. Twenty days later, animals were boosted i.n. with the same dose of respective immunogens. For peptide-based vaccination, transgenic mice were immunized subcutaneously (s.c.) with 50 μg of individual synthetic peptides emulsified in 100 μL of incomplete Freund's adjuvant (IFA) and then boosted s.c. with the same dose of respective peptides mixed with IFA one week later. Mice were sacrificed 7 days after the boost. The splenocytes were isolated and stimulated with synthetic CD8 epitope peptides in the presence of 5-(6)-carboxyfluorescein diacetate succinimidyl ester (CFSE) for 4 and 8 days. Proliferated CD4^+ or CD8^+ T cell counts were analyzed by flow cytometry (BD FACSCalibur) using PE-labeled specific antibody against CD4 or CD8, respectively. […]
(§2) To test the immunogenicity of these peptides, HLA-Tg B6 mice were immunized twice with individual IFA-emulsified peptide No. 3, 14, 23, or peptide 17 at day 0 and day 7. […] Proliferated CD4^+ and CD8^+ lymphocytes in response to CD8 epitope were counted by a flow cytometry analysis using specific anti-CD4 and CD8 antibodies conjugated with FITC, respectively. […]

[2] = test system: spleen lymphocytes of peptide-immunized HLA-Tg B6 mice; assay: IFN-γ ELISPOT, peptide-restimulated splenocytes of peptide-immunized mice; format: in vivo, mouse
Method: as §1
Following 2 hr of incubation at room temperature, the plate was washed with 200 μL of wash buffer. […] The plates were washed with water, air-dried overnight, and the spots per culture were scored using the immunospot counting reader (C.T.L. IMMUNOSPOT, […] TECHNOLOGY LTD). Results were expressed as the number of cytokine-secreting cells per 5×10^5 splenocytes seeded at culture initiation. […]

[3] = test system: CD8+ lymphocytes of peptide-immunized HLA-Tg B6 mice; assay: CD8+ T cell proliferation (CFSE, cell dividing index) in peptide-immunized mice; format: in vivo, mouse; conditions: mice immunized s.c. twice with 50 μg peptide in IFA; 8 days of restimulation by the same peptide
Method: as §1, §2

peptide-loaded T2 cells = assay: Cytotoxicity (CTL) assay, CFSE/7-AAD, splenocytes of peptide-immunized mice against peptide-loaded T2 cells; format: in vivo, mouse; conditions: E:T ratio of 100:1; IFA vehicle background 6.5%
Method: A non-radioactive assay of cell-mediated cytotoxicity was performed using green fluorescent probes 5-(6)-carboxyfluorescein diacetate succinimidyl ester (CFSE) to label target cells in combination with 7-amino-actinomycin D (7AAD), a red fluorescent probe to label dead effector and dead target cells. The assay was used to assess the presence of the RSV F protein-specific CTLs in the spleens or lungs of the immunized animals [Russell et al. (2002) “Lymphocyte-mediated cytotoxicity” Annu Rev Immunol 20:323-70]. The assay protocol was in accordance with the manufacturer's instructions (Cayman Chemical, Michigan, USA). […]
The CFSE-labeled target cells were resuspended in the culture medium and incubated at 37° C. of CO2 incubator for 30 minutes. […] The CFSE positive cells were measured in the FL1 channel and 7-AAD stained cells were measured in the FL3 channel. The percentage of CFSE/7-AAD double positive target cells (i.e., T2 cell death) was analyzed.
It has been reported that in primary RSV infection of BALB/c mice, CTLs generated against the F, matrix 2 (M2) and N viral proteins play a protective role in virus clearance. […] A mean background percentage of the killed target cells co-cultured with the control splenocytes isolated from the mouse previously immunized with the vehicle IFA was scored (6.5% at the E:T ratio of 100:1). […]

[4] = test system: eosinophile count in peripheral blood or lung; format: in vivo, mouse; conditions: peptide-immunized mice challenged with RSV; data not shown
[5] = test system: lungs of peptide-immunized mice infected with RSV; assay: Pathological staining of CD4+ and CD8+ T cells in lungs of peptide-immunized, RSV-infected mice; format: in vivo, mouse
Excerpt: A recent study has generally questioned the role of CTLs in the pathogenesis of human RSV infection. Very few CD8^+ T cells in the lung infiltrates were found in human infants infected with lethal RSV. Additionally, there was little evidence for T cell cytokines in nasal secretion and few CTL can be recovered by BAL from the infants with bronchiolitis.

Question: For “TLLLWVLLL (F5-13) [compound 1, 9-mer synthetic peptide from the F protein of RSV-B1 strain]”, which “binding affinity higher than the baseline” value (HLA-A*0201 molecules) is on record?
Answer: 10%

Question: How did the “mean of fluorescence intensity (MFI) ratio, binding to HLA-A*0201” value (“mean … (MFI) ratio, binding to HLA-A*0201” for short) (HLA-A*0201 molecules) turn out when “LMSNNVQIV (F296-304) [compound 16, 9-mer synthetic peptide from the F protein of RSV-B1 strain]” was run?
Answer: about 1.5

Question: Which results are given for “KVLDLKNYI (F214-222) [compound 13, 9-mer synthetic peptide from the F protein of RSV-B1 strain]”?
Answer: protection against live RSV challenge (lung viral plaques, in words) (RSV-B1): not protected; CD4+ cell proliferation [1]: did not manifest cell proliferation; IFN-γ level (ELISPOT, in words) [2]: background level of IFN-γ; CD8+ lymphocyte proliferation [3]: did not elicit CD8^+ lymphocyte proliferation; binding activity to HLA-A*0201 molecules (in words) (HLA-A*0201 molecules): strong binding activity; binding affinity higher than the baseline (HLA-A*0201 molecules): 10%; percentage of killed target cells (CFSE and 7-AAD double positive T2 cells), CTL response (peptide-loaded T2 cells): 15.4%

Question: With “ALLSTNKAV (F193-201) [compound 8, 9-mer synthetic peptide from the F protein of RSV-B1 strain]” as the sequence, how does the “binding affinity higher than the baseline” value (HLA-A*0201 molecules) read?
Answer: 10%

Question: Which results are given for YMLTNSELL [compound 14]?
Answer: eosinophilia (eosinophile count in peripheral blood or lung) [4]: absence of pulmonary eosinophilia; infiltrated CD4+ and CD8+ T cells in the lungs [5]: few infiltrated CD4^+ and CD8^+ T cells

Question: With “KLMSNNVQI (F295-303) [compound 15, 9-mer synthetic peptide from the F protein of RSV-B1 strain]” as the sequence, how does the “mean … (MFI) ratio, binding to HLA-A*0201” value (HLA-A*0201 molecules) read?
Answer: about 1.5

Question: Which “binding affinity higher than the baseline” value (HLA-A*0201 molecules) does the source give for “SLIAVGLLL (F563-571) [compound 25, 9-mer synthetic peptide from the F protein of RSV-B1 strain]” here?
Answer: 10%

Question: “LLSLIAVGL (F561-569) [compound 24, 9-mer synthetic peptide from the F protein of RSV-B1 strain]” was tested. Which “mean … (MFI) ratio, binding to HLA-A*0201” value (HLA-A*0201 molecules) did it give?
Answer: about 1.5

Question: “LLSTNKAVV (F194-202) [compound 9, 9-mer synthetic peptide from the F protein of RSV-B1 strain]” was tested. Which “mean … (MFI) ratio, binding to HLA-A*0201” value (HLA-A*0201 molecules) did it give?
Answer: about 1.5

Question: How did the “binding affinity higher than the baseline” value (HLA-A*0201 molecules) turn out when “FLLGVGSAI (F163-171) [compound 6, 9-mer synthetic peptide from the F protein of RSV-B1 strain]” was run?
Answer: 10%

Question: With KIMTSKTDV [compound 17] as the sequence, how does the “infiltrated CD4+ and CD8+ T cells in the lungs” value [5] read?
Answer: few infiltrated CD4^+ and CD8^+ T cells

Question: How did the “eosinophilia (eosinophile count in peripheral blood or lung)” value [4] turn out when VILLSLIAV [compound 23] was run?
Answer: not eosinophilia

Question: What about the “infiltrated CD4+ and CD8+ T cells in the lungs” value [5] of the same sequence?
Answer: more infiltrated CD4^+ and CD8^+ T cells; also recorded: severe CD8^+ lymphocytic inflammation

Question: “SVGNTLYYV (F474-482) [compound 18, 9-mer synthetic peptide from the F protein of RSV-B1 strain]” was tested. Which “binding affinity higher than the baseline” value (HLA-A*0201 molecules) did it give?
Answer: 10%

Question: AITTILAAV [compound 3] was tested. Which “infiltrated CD4+ and CD8+ T cells in the lungs” value [5] did it give?
Answer: few infiltrated CD4^+ and CD8^+ T cells
